Measured values as given in PMC2133053 (The Journal of Cell Biology, 1998).

Biological target: GST–INAD fusion protein (full-length INAD in pGEX5.1) (Drosophila, UniProt Q24008 1-674)
Test: pull-down

fold reduction of binding relative to wild-type PKC: ~8 fold
B1: PKC^D (last three residues changed to aspartic acid), in vitro translated, 35S-labelled (enzyme, Drosophila, UniProt P13677 1-700, looked up)
chain: MAAAAVATPGATVLPPSVPSAAPGAKAPAAGAGKGPGNLLEITGEANIVNYMKNRLRKGAMKRKGLEMVNGHRFGVRFFKNPTYCGHCKDFIWGFGKQGFQCEECRFNIHQKCCKFVVFKCPGKDTDFDADCAKVKHGWISTTYTTPTFCDECGLLLHGVAHQGVKCENCNLNVHHACQETVPPMCGADISEVRGKLLLYVELKGNNLKVDIKEAANLIPMDTNGFSDPYIAVQMHPDRSGRTKKKTKTIQKNLNPVFNETFTFELQPQDRDKRLLIEVWDWDRTSRNDFMGSFSFSLEELQKEPVDGWYKFLSQVEGEHYNIPCVDAFNDIARLRDEVRHDRRPNEKRRMDNKDMPHNMSKRDMIRAADFNFVKVIGKGSFGKVLLAERRGTDELYAVKVLRKDVIIQTDDMELPMNEKKILALSGRPPFLVSMHSCFQTMDRLFFVMEYCKGGDLMYHMQQYGRFKESVAIFYAVEVAIALFFLHERDIIYRDLKLDNILLDGEGHVKLVDFGLSKEGVTERQTTRTFCGTPNYMAPEIVSYDPYSIAADWWSFGVLLFEFMAGQAPFEGDDETTVFRNIKDKKAVFPKHFSVEAMDIITSFLTKKPNNRLGAGRYARQEITTHPFFRNVDWDKAEACEMEPPIKPMIKHRKDISNFDDAFTKEKTDLTPTDKLFMMNLDQNDFIGFSFMNPEFIDDD
modifications: [35S]methionine label
